In patent US20040132096A1 (GlaxoSmithKline, published 2004):

B1: Asp2/BACE-myc (enzyme, not shown: small tags and cut ends)
chain: ETDEEPEEPGRRGSFVEMVDNLRGKSGQGYYVEMTVGSPPQTLNILVDTGSSNFAVGAAPHPFLHRYYQRQLSSTYRDLRKGVYVPYTQGKWEGELGTDLVSIPHGPNVTVRANIAAITESDKFFINGSNWEGILGLAYAEIARPDDSLEPFFDSLVKQTHVPNLFSLQLCGAGFPLNQSEVLASVGGSMIIGGIDHSLYTGSLWYTPIRREWYYEVIIVRVEINGQDLKMDCKEYNYDKSIVDSGTTNLRLPKKVFEAAVKSIKAASSTEKFPDGFWLGEQLVCWQAGTTPWNIFPVISLYLMGEVTNQSFRITILPQQYLRPVEDVATSQDDCYKFAISQSSTGTVMGAVIMEGFYVVFDRARKRIGFAVSACHVHDEFRTAAVEGPFVTLDMEDCGYNIPQTDESTLMTIAYVMAAICALFMLPLCLMVCQWRCLRCLRQQHDDFADDISLLK
notes: It was transiently transfected into SHSY5Y-APPswe cells; also called BACE/Asp2

What was measured:
Nogo-A = target: T1, Nogo-A (Homo sapiens (Human), UniProt Q9NQC3 1-1192); assay: co-localisation by immunofluorescence in double-transfected SHSY5Y-APPswe cells
T1 sequence: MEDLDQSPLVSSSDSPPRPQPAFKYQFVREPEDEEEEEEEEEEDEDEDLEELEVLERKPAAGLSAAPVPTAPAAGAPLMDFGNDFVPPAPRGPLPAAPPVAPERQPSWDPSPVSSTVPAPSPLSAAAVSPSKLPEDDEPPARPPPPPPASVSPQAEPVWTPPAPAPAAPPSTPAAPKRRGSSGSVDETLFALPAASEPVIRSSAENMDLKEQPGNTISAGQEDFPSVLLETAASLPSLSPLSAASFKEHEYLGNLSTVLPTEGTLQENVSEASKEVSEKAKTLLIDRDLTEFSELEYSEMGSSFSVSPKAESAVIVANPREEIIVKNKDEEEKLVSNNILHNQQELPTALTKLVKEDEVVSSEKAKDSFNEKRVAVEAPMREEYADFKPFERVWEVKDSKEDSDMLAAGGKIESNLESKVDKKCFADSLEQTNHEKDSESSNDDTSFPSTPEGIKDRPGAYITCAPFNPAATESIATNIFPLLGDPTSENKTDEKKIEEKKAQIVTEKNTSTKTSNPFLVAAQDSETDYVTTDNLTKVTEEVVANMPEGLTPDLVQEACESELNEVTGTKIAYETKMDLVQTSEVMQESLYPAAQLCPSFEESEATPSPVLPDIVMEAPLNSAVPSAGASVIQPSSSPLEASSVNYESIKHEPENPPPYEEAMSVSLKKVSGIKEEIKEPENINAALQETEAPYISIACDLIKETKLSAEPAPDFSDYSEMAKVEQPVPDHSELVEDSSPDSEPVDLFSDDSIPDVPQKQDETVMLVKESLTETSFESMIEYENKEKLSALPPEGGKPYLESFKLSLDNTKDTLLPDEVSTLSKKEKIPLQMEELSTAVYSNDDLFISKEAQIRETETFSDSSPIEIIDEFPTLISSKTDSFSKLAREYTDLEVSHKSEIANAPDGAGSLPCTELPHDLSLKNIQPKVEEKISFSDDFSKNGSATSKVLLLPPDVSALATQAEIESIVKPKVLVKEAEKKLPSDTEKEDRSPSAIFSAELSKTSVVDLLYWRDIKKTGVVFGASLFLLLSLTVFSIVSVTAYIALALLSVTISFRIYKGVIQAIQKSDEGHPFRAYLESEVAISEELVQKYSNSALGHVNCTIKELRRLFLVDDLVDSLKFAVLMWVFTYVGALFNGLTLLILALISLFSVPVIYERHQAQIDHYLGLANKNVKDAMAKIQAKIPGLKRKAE
Text: (§1) cDNAs encoding Nogo isoforms were transfected into cultured SHSY5Y-APPswe cells and expressed proteins detected in fixed cells with immunohistochemistry. Asp2 was detected using a c-terminal myc epitope (FIG. 3A left panel) while the Nogo-A (FIG. 3A right panel) and B isoforms were detected using isoform specific rabbit polyclonal antibodies (designated 67 and 66 respectively or monoclonal Anti-Nogo-A 6D5 as indicated in the figure legends). These experiments confirm that it is possible to overexpress these proteins in this cellular background and can be used as the basis of an assay for modulators of Nogo influenced APP processing.

Asp2/BACE-myc = target: B1; assay: as above
Text: as §1

Binder: B1
- binding result (Nogo-A): binds

B2: NogoB (ASY) (other)
chain: MEDLDQSPLVSSSDSPPRPQPAFKYQFVREPEDEEEEEEEEEEDEDEDLEELEVLERKPAAGLSAAPVPTAPAAGAPLMDFGNDFVPPAPRGPLPAAPPVAPERQPCWDPSPVSSTVPAPSPLSAAAVSPSKLPQDDEPPARPPPPPPASVSPQAEPVWTPPAPAPAAPPSTPAAPKRRGSSGSVVVDLLYWRDIKKTGVVFGASLFLLLSLTVFSIVSVTAYIALALLSVTISFRIYKGVIQAIQKSDEGHPFRAYLESEVAISEELVQKYSNSALGHVNCTIKELRRLFLVDDLVDSLKFAVLMWVFTYVGALFNGLTLLILALISLFSVPVIYERHQAQIDHYLGLANKNVKDAMAKIQAKIPGLKRKAE
- binding result (Asp2/BACE-myc): binds
